Assay results reported in patent US20150328292A1, “CASPASE POLYPEPTIDES HAVING MODIFIED ACTIVITY AND USES THEREOF” (BELLICUM PHARMACEUTICALS, INC., priority 2014, published 2015).
“Also recorded” adds a separate entry of the source.

Test system: HEK293T/16 cells
Assay: SEAP reporter-based surrogate killing assay (basal activity and AP1903 IC50)
Type: cell-based, human
Settings: AP1903-independent SEAP activity, vs wild type
Method: FIG. 45 provides a schematic of an analysis of SEAP assays. […] of the mixture was seeded onto each well of a 96-well plate. […] For the assay, 4-methylumbelliferyl phosphate substrate was hydrolyzed by SEAP to 4-methylumbelliferon, a metabolite that can be excited with 364 nm and detected with an emission filter of 448 nm. Since SEAP is used as a marker for cell viability, reduced SEAP reading corresponds with increased icaspase-9 activities.
Early passage HEK293T/16 cells (ATCC, Manassas, Va.) were maintained in IMDM, GlutaMAX™ (Life Technologies, Carlsbad, Calif.) supplemented with 10% FBS, 100 U/mL penicillin, and 100 […] until transfection in a humidified, 37° C., 5% CO2/95% air atmosphere. Cells in logarithmic-phase growth were transiently transfected with 800 ng to 2 μg of expression plasmid encoding iCasp9 mutants and 500 ng of an expression plasmid encoding SRα promoter driven SEAP per million cells in 15-mL conical tubes. […] GeneJammer® Transfection Reagent at a ratio of 3 μl per ug of plasmid DNA was used to transiently transfect HEK293T/16 cells in the absence of antibiotics. 100 μl or 2 mL of the transfection mixture was added to each well in 96-well or 6-well plate, respectively.
Briefly, after 65° C. heat denaturation for 45 minutes to reduce background caused by endogenous (and serum-derived) alkaline phosphatases that are sensitive to heat, 5 μl of supernatants was added to 95 μl of PBS and added to 100 μl of substrate buffer, containing 1 μl of 100 mM 4-methylumbelliferyl phosphate (4-MUP; Sigma, St. Louis, Mo.) re-suspended in 2 M diethanolamine. Hydrolysis of 4-MUP by SEAP produces a fluorescent […] with excitation/emission (355/460 nm), which can be easily measured. Assays were performed in black opaque 96-well plates to minimize fluorescence leakage between wells (FIG. 45).

B1: T317C: chimeric modified caspase-9 polypeptide variant (protein)
chain: VDGFGDVGALESLRGNADLAYILSMEPCGHCLIINNVNFCRESGLRTRTGSNIDCEKLRRRFSSLHFMVEVKGDLTAKKMVLALLELARQDHGALDCCVVVILSHGCQASHLQFPGAVYGTDGCPVSVEKIVNIFNGTSCPSLGGKPKLFFIQACGGEQKDHGFEVASTSPEDESPGSNPEPDACPFQEGLRTFDQLDAISSLPTPSDIFVSYSTFPGFVSWRDPKSGSWYVETLDDIFEQWAHSEDLQSLLLRVANAVSVKGIYKQMPGCFNFLRKKLFFKTSASRA
- basal activity / basal signaling (in words): no effect

B2: P318A: chimeric modified caspase-9 polypeptide variant (protein, UniProt P55211 1-416, looked up, variant P318A)
chain: MDEADRRLLRRCRLRLVEELQVDQLWDALLSRELFRPHMIEDIQRAGSGSRRDQARQLIIDLETRGSQALPLFISCLEDTGQDMLASFLRTNRQAAKLSKPTLENLTPVVLRPEIRKPEVLRPETPRPVDIGSGGFGDVGALESLRGNADLAYILSMEPCGHCLIINNVNFCRESGLRTRTGSNIDCEKLRRRFSSLHFMVEVKGDLTAKKMVLALLELAQQDHGALDCCVVVILSHGCQASHLQFPGAVYGTDGCPVSVEKIVNIFNGTSCPSLGGKPKLFFIQACGGEQKDHGFEVASTSPEDESPGSNPEPDATAFQEGLRTFDQLDAISSLPTPSDIFVSYSTFPGFVSWRDPKSGSWYVETLDDIFEQWAHSEDLQSLLLRVANAVSVKGIYKQMPGCFNFLRKKLFFKTS
modifications: chimeric, fused to FKBP12v36
notes: chimeric modified caspase-9 polypeptide variant
- basal activity / basal signaling (in words): no effect

B3: F319A: chimeric modified caspase-9 polypeptide variant (protein, UniProt P55211 1-416, looked up, variant F319A)
chain: MDEADRRLLRRCRLRLVEELQVDQLWDALLSRELFRPHMIEDIQRAGSGSRRDQARQLIIDLETRGSQALPLFISCLEDTGQDMLASFLRTNRQAAKLSKPTLENLTPVVLRPEIRKPEVLRPETPRPVDIGSGGFGDVGALESLRGNADLAYILSMEPCGHCLIINNVNFCRESGLRTRTGSNIDCEKLRRRFSSLHFMVEVKGDLTAKKMVLALLELAQQDHGALDCCVVVILSHGCQASHLQFPGAVYGTDGCPVSVEKIVNIFNGTSCPSLGGKPKLFFIQACGGEQKDHGFEVASTSPEDESPGSNPEPDATPAQEGLRTFDQLDAISSLPTPSDIFVSYSTFPGFVSWRDPKSGSWYVETLDDIFEQWAHSEDLQSLLLRVANAVSVKGIYKQMPGCFNFLRKKLFFKTS
modifications: chimeric, fused to FKBP12v36
notes: as for B2
- basal activity / basal signaling (in words): no effect

B4: T317S: chimeric modified caspase-9 polypeptide variant (protein)
chain: VDGFGDVGALESLRGNADLAYILSMEPCGHCLIINNVNFCRESGLRTRTGSNIDCEKLRRRFSSLHFMVEVKGDLTAKKMVLALLELARQDHGALDCCVVVILSHGCQASHLQFPGAVYGTDGCPVSVEKIVNIFNGTSCPSLGGKPKLFFIQACGGEQKDHGFEVASTSPEDESPGSNPEPDASPFQEGLRTFDQLDAISSLPTPSDIFVSYSTFPGFVSWRDPKSGSWYVETLDDIFEQWAHSEDLQSLLLRVANAVSVKGIYKQMPGCFNFLRKKLFFKTSASRA
- basal activity / basal signaling (in words): lower basal activity; also recorded: reduce basal activity; also recorded: decrease in basal activity

B5: T317A: chimeric modified caspase-9 polypeptide variant (protein)
chain: VDGFGDVGALESLRGNADLAYILSMEPCGHCLIINNVNFCRESGLRTRTGSNIDCEKLRRRFSSLHFMVEVKGDLTAKKMVLALLELARQDHGALDCCVVVILSHGCQASHLQFPGAVYGTDGCPVSVEKIVNIFNGTSCPSLGGKPKLFFIQACGGEQKDHGFEVASTSPEDESPGSNPEPDAAPFQEGLRTFDQLDAISSLPTPSDIFVSYSTFPGFVSWRDPKSGSWYVETLDDIFEQWAHSEDLQSLLLRVANAVSVKGIYKQMPGCFNFLRKKLFFKTSASRA
- basal activity / basal signaling (in words): lower basal activity; also recorded: reduce basal activity; also recorded: decrease in basal activity

B6: A316G: chimeric modified caspase-9 polypeptide variant (protein)
chain: VDGFGDVGALESLRGNADLAYILSMEPCGHCLIINNVNFCRESGLRTRTGSNIDCEKLRRRFSSLHFMVEVKGDLTAKKMVLALLELARQDHGALDCCVVVILSHGCQASHLQFPGAVYGTDGCPVSVEKIVNIFNGTSCPSLGGKPKLFFIQACGGEQKDHGFEVASTSPEDESPGSNPEPDGTPFQEGLRTFDQLDAISSLPTPSDIFVSYSTFPGFVSWRDPKSGSWYVETLDDIFEQWAHSEDLQSLLLRVANAVSVKGIYKQMPGCFNFLRKKLFFKTSASRA
- basal activity / basal signaling (in words): lower basal activity

B7: F319W: chimeric modified caspase-9 polypeptide variant (protein, UniProt P55211 1-416, looked up, variant F319W)
chain: MDEADRRLLRRCRLRLVEELQVDQLWDALLSRELFRPHMIEDIQRAGSGSRRDQARQLIIDLETRGSQALPLFISCLEDTGQDMLASFLRTNRQAAKLSKPTLENLTPVVLRPEIRKPEVLRPETPRPVDIGSGGFGDVGALESLRGNADLAYILSMEPCGHCLIINNVNFCRESGLRTRTGSNIDCEKLRRRFSSLHFMVEVKGDLTAKKMVLALLELAQQDHGALDCCVVVILSHGCQASHLQFPGAVYGTDGCPVSVEKIVNIFNGTSCPSLGGKPKLFFIQACGGEQKDHGFEVASTSPEDESPGSNPEPDATPWQEGLRTFDQLDAISSLPTPSDIFVSYSTFPGFVSWRDPKSGSWYVETLDDIFEQWAHSEDLQSLLLRVANAVSVKGIYKQMPGCFNFLRKKLFFKTS
modifications: chimeric, fused to FKBP12v36
notes: as for B2
- basal activity / basal signaling (in words): lower basal activity

B8: D330N: chimeric modified caspase-9 polypeptide variant (protein)
chain: VDGFGDVGALESLRGNADLAYILSMEPCGHCLIINNVNFCRESGLRTRTGSNIDCEKLRRRFSSLHFMVEVKGDLTAKKMVLALLELARQDHGALDCCVVVILSHGCQASHLQFPGAVYGTDGCPVSVEKIVNIFNGTSCPSLGGKPKLFFIQACGGEQKDHGFEVASTSPEDESPGSNPEPDATPFQEGLRTFDQLNAISSLPTPSDIFVSYSTFPGFVSWRDPKSGSWYVETLDDIFEQWAHSEDLQSLLLRVANAVSVKGIYKQMPGCFNFLRKKLFFKTSASRA
- basal activity / basal signaling (in words): less basal activity than wild type caspase-9

B9: D330V: chimeric modified caspase-9 polypeptide variant (protein)
chain: VDGFGDVGALESLRGNADLAYILSMEPCGHCLIINNVNFCRESGLRTRTGSNIDCEKLRRRFSSLHFMVEVKGDLTAKKMVLALLELARQDHGALDCCVVVILSHGCQASHLQFPGAVYGTDGCPVSVEKIVNIFNGTSCPSLGGKPKLFFIQACGGEQKDHGFEVASTSPEDESPGSNPEPDATPFQEGLRTFDQLVAISSLPTPSDIFVSYSTFPGFVSWRDPKSGSWYVETLDDIFEQWAHSEDLQSLLLRVANAVSVKGIYKQMPGCFNFLRKKLFFKTSASRA
- basal activity / basal signaling (in words): less basal activity than wild type caspase-9

B10: D330G: chimeric modified caspase-9 polypeptide variant (protein)
chain: VDGFGDVGALESLRGNADLAYILSMEPCGHCLIINNVNFCRESGLRTRTGSNIDCEKLRRRFSSLHFMVEVKGDLTAKKMVLALLELARQDHGALDCCVVVILSHGCQASHLQFPGAVYGTDGCPVSVEKIVNIFNGTSCPSLGGKPKLFFIQACGGEQKDHGFEVASTSPEDESPGSNPEPDATPFQEGLRTFDQLGAISSLPTPSDIFVSYSTFPGFVSWRDPKSGSWYVETLDDIFEQWAHSEDLQSLLLRVANAVSVKGIYKQMPGCFNFLRKKLFFKTSASRA
- basal activity / basal signaling (in words): less basal activity than wild type caspase-9

B11: D330S: chimeric modified caspase-9 polypeptide variant (protein)
chain: VDGFGDVGALESLRGNADLAYILSMEPCGHCLIINNVNFCRESGLRTRTGSNIDCEKLRRRFSSLHFMVEVKGDLTAKKMVLALLELARQDHGALDCCVVVILSHGCQASHLQFPGAVYGTDGCPVSVEKIVNIFNGTSCPSLGGKPKLFFIQACGGEQKDHGFEVASTSPEDESPGSNPEPDATPFQEGLRTFDQLSAISSLPTPSDIFVSYSTFPGFVSWRDPKSGSWYVETLDDIFEQWAHSEDLQSLLLRVANAVSVKGIYKQMPGCFNFLRKKLFFKTSASRA
- basal activity / basal signaling (in words): less basal activity than wild type caspase-9; also recorded: statistically lower basal signaling

B12: S183A: chimeric modified caspase-9 polypeptide variant (protein)
chain: VDGFGDVGALESLRGNADLAYILSMEPCGHCLIINNVNFCRESGLRTRTGANIDCEKLRRRFSSLHFMVEVKGDLTAKKMVLALLELARQDHGALDCCVVVILSHGCQASHLQFPGAVYGTDGCPVSVEKIVNIFNGTSCPSLGGKPKLFFIQACGGEQKDHGFEVASTSPEDESPGSNPEPDATPFQEGLRTFDQLDAISSLPTPSDIFVSYSTFPGFVSWRDPKSGSWYVETLDDIFEQWAHSEDLQSLLLRVANAVSVKGIYKQMPGCFNFLRKKLFFKTSASRA
- basal activity / basal signaling (in words): lower basal activity
